Assay results taken from article doi:10.1101/2023.06.19.545293.

Molecular target: ZnF domain of A. thaliana SPL5 (Ser60-Leu127) (A. thaliana) (UniProt Q9S758)
Test: ITC

Sequence of ZnF domain of A. thaliana SPL5 (Ser60-Leu127) (A. thaliana) (Q9S758 60-127): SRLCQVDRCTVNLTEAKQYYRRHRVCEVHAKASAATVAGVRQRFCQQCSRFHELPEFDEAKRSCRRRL

Substance: SAP05 (mature, Ala33-Lys135) of Aster Yellows phytoplasma strain Witches Broom (natural protein)
- Kd: 450 nM
- stoichiometry N: 1
